B1: AtCAD-H protein (cinnamyl alcohol dehydrogenase) (Arabidopsis thaliana) (protein)
chain: MANSGEGKVVCVTGASGYIASWLVKFLLSRGYTVKASVRDPSDPKKTQHLVSLEGAKERLHLFKADLLEQGSFDSAIDGCHGVFHTASPFFNDAKDPQAELIDPAVKGTLNVLNSCAKASSVKRVVVTSSMAAVGYNGKPRTPDVTVDETWFSDPELCEASKMWYVLSKTLAEDAAWKLAKEKGLDIVTINPAMVIGPLLQPTLNTSAAAILNLINGAKTFPNLSFGWVNVKDVANAHIQAFEVPSANGRYCLVERVVHHSEIVNILRELYPNLPLPERCVDENPYVPTYQVSKDKTRSLGIDYIPLKVSIKETVESLKEKGFAQF

Key:
[1] = target: AtCAD-H protein (cinnamyl alcohol dehydrogenase) (Arabidopsis thaliana, UniProt F4K152); assay: Enzyme activity of purified AtCAD-H protein, backward reaction (Lineweaver-Burk); format: biochemical; conditions: substrate coniferyl alcohol, NADPH^+ in place of NADPH, Tris-HCl pH 9.3, 37° C.
Method: (§1) In order to identify whether the isolated protein has the cinnamyl alcohol dehydrogenase function related to lignin biosynthesis, the enzyme activity in forward reaction was measured using coniferaldehyde as a substrates. Also, the enzyme activity in backward reaction was measured using coniferyl alcohol as a substrates so as to identify whether the enzyme also involves in backward reaction or not.
(§2) The enzyme activities were measured at 405 nm using a microplate reader (Bio-rad Backman Microplate Reader) adjusted at 37° C. according to the method of Mitchell et al. (Mitchell et al. Planta, 208: 31-47, 1998). In […] of the reaction solution for the measurement of the enzyme activity in forward reaction, 100 mM Tris-buffer (Tris-HCl pH 9.3), […], and 2-3 μg of the protein purified in Example 2-2 were contained. The conditions of the reaction solution for the measurement of the enzyme activity in backward reaction is the same as that of the reaction solution of forward reaction, except that 100 mM NADPH^+ was contained in place of 100 mM NADPH. […]
(§3) Meanwhile, the enzyme activity of the purified protein was suitable for Michaelis-Menten kinetics for 100 mM coniferyl alcohol, that is, the substrate of backward reaction. The reaction velocities were measured according to variation of substrate concentration, and represented in a Lineweaver-Burk's plot (see FIG. 2b). […]

[2] = substrate: COc1cc(/C=C/CO)ccc1O; assay: as above; format: biochemical, Arabidopsis thaliana; conditions: other: backward reaction, substrate coniferyl alcohol, NADPH^+ in place of NADPH, Tris-HCl pH 9.3, 37° C.
Method: as §1, §2, §3

[3] = substrate: COc1cc(/C=C/C=O)ccc1O; assay: Enzyme activity of purified AtCAD-H protein, forward reaction (Lineweaver-Burk); format: biochemical, Arabidopsis thaliana; conditions: other: forward reaction, substrate coniferaldehyde, NADPH, Tris-HCl pH 9.3, 37° C., 405 nm
Method: as §1, §2
The enzyme activity of the purified protein was suitable for Michaelis-Menten kinetics for 100 mM coniferaldehyde, that is, the substrate of forward reaction. The reaction velocities were measured according to variation of substrate concentration, and represented in a Lineweaver-Burk's plot (see FIG. 2a).

| Molecule | Vmax [1] | Km [2] [µM] | Km [3] [µM] |
| --- | --- | --- | --- |
| COc1cc(/C=C/CO)ccc1O [coniferyl alcohol] | 0.102 | – | – |
| B1 | – | 374 | 19.8 |
